Measurements reported in patent US4642335A, “Anthracycline compounds bound to hydrophilic polypeptides” (Ajinomoto Co., Inc., priority 1984, dated 1987).
≈ marks a conversion by molar mass, not a printed value. Like-named read-outs stand apart in the source and are kept apart here.

B1: NCS-apoprotein: methanol-insoluble fraction (protein moiety) of neocarzinostatin (protein, UniProt P0A3R9 35-147, looked up)
Neocarzinostatin: AAPTATVTPSSGLSDGTVVKVAGAGLQAGTAYDVGQCAWVDTGVLACNPADFSSVTADANGSASTSLTVRRSFEGFLFDGTRWGTVDCTTAACQVGLSDAAGNGPEGVAISFN
B2: HBW-21(A): NCS-apoprotein and aclacinomycin A bound together, molar ratio 1:1 (conjugate, UniProt P0A3R9 35-147, looked up)
Neocarzinostatin: B1 Neocarzinostatin
modifications: aclacinomycin A conjugate, 1:1
B3: HBW-10(A): NCS-apoprotein and daunomycin bound through hydrogen bond and/or hydrophobic bond, molar ratio 1:1 (conjugate, UniProt P0A3R9 35-147, looked up)
Neocarzinostatin: B1 Neocarzinostatin
modifications: noncovalent complex with daunomycin, 1:1
B4: HBW-21(B): NCS-apoprotein and aclacinomycin A bound together, molar ratio 1:5 (conjugate, UniProt P0A3R9 35-147, looked up)
Neocarzinostatin: B1 Neocarzinostatin
modifications: complex with aclacinomycin A, 1:5

Experiments:
mouse L1210 leukemia = experiment: antitumor activity against mouse L1210 leukemia, life prolongation rate; type: in vivo; settings: once a day for five days starting 24 hours after tumor cell injection, control survival day = 100%
Protocol: (§1) These HB-6 substances were tested for their antitumor activity in terms of mouse L1210 leukemia. L1210 leukemia cells (1×10^5) were abdominally injected to each mouse, and the test sample was administered once a day for consecutive five days, with the first administration being started 24 hours after injection of the tumor cells. The result is summarized in Table 1, in which the antitumor activity of each drug is expressed as life prolongation rate, taking the survival day for the control group as 100%.
as §1, with “HBW-6” for “HB-6”, “2,” for “1,”

[1] = tested on: Bacillus subtilis ATCC6633; experiment: antibacterial activity, MIC, Bacillus subtilis ATCC6633; type: cell-based
[2] = tested on: Micrococcus luteus ATCC9341; experiment: antibacterial activity, MIC, Micrococcus luteus ATCC9341; type: cell-based
[3] = tested on: Pseudomonas aeruginosa ATCC10145; experiment: antibacterial activity, MIC, Pseudomonas aeruginosa ATCC10145; type: cell-based
Solubility = type: physicochemical; settings: water and organic solvents
Isoelectric point = type: physicochemical

Row | Molecule | Life Prolongation Rate (mouse L1210 leukemia; dose 2 mg/Kg) | MIC [1] | MIC [2] | MIC [3] | Life Prolongation Rate (mouse L1210 leukemia; dose 1 mg/Kg) | further results
1 | COc1cccc2c1C(=O)c1c(O)c3c(c(O)c1C2=O)C[C@@](O)(C(C)=O)C[C@@H]3O[C@H]1C[C@H](N)[C@H](O)[C@H](C)O1 [Daunomycin, daunomycin, reference compound] | 145% | – | – | – | – | MIC ([1]; read-out: MIC): 5.8 µg/mL (≈ 11 µM); MIC ([2]; read-out: MIC): 1.2 µg/mL (≈ 2.27 µM); MIC ([3]; read-out: MIC): > 10 µg/mL
2 | B1 | 101% | > 100 µg/mL | > 100 µg/mL | > 100 µg/mL | – | Solubility (Solubility): Soluble in water; insoluble in methanol, ethanol, acetone, butanol and propanol; Isoelectric point (Isoelectric point): 3.2 pH
3 | B2 | – | – | – | – | 135% | –
4 | B3 | – | 2.3 µg/mL | 0.30 µg/mL | > 10 µg/mL | 260% | –
5 | B4 | – | – | – | – | 162% | –
